Assay results as given in IntAct's records for PubMed 19534813.

B1: Twist-related protein 1 (Homo sapiens), Q15672 (parent)
chain: MMQDVSSSPVSPADDSLSNSEEEPDRQQPPSGKRGGRKRRSSRRSAGGGAGPGGAAGGGVGGGDEPGSPAQGKRGKKSAGCGGGGGAGGGGGSSSGGGSPQSYEELQTQRVMANVRERQRTQSLNEAFAALRKIIPTLPSDKLSKIQTLKLAARYIDFLYQVLQSDELDSKMASCSYVAHERLSYAFSVWRMEGAWSMSASH

Variants of: B1
Conditions: with itf2_human TCF4, P15884
Chain of itf2_human TCF4, P15884 (P15884 whole entry): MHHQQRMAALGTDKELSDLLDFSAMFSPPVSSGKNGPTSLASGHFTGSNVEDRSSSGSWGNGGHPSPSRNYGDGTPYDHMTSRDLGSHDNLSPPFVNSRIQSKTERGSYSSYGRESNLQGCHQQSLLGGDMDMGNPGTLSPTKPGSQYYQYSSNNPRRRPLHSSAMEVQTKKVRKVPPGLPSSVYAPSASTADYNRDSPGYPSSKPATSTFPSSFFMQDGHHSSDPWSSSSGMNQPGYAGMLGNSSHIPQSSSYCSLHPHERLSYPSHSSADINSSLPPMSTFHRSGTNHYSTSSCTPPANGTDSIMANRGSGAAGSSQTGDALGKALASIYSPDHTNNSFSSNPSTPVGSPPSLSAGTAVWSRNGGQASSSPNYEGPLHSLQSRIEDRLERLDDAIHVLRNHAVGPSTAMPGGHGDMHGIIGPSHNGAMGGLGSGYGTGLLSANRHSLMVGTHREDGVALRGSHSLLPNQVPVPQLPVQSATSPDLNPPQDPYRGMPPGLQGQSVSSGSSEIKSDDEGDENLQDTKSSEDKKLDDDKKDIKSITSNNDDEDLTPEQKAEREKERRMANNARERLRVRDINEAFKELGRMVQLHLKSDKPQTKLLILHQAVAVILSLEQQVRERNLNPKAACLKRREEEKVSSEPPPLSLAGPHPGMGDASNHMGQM

| effect of a mutation on the interaction | Variant |
| --- | --- |
| with no effect | MMQDVSSSPVSPADDSLSNSEEEPDRQQPPSGKRGGRRRRSSRRSAGGGAGPGGAAGGGVGGGDEPGSPAQGKRGKKSAGCGGGGGAGGGGGSSSGGGSPQSYEELQTQRVMANVRERQRTQSLNEAFAALRKIIPTLPSDKLSKIQTLKLAARYIDFLYQVLQSDELDSKMASCSYVAHERLSYAFSVWRMEGAWSMSASH [K38R] |
| with no effect | MMQDVSSSPVSPADDSLSNSEEEPDRQQPPSGKRGGRKRRSSRRSAGGGAGPGGAAGGGVGGGDEPGSPAQGRRGKKSAGCGGGGGAGGGGGSSSGGGSPQSYEELQTQRVMANVRERQRTQSLNEAFAALRKIIPTLPSDKLSKIQTLKLAARYIDFLYQVLQSDELDSKMASCSYVAHERLSYAFSVWRMEGAWSMSASH [K73R] |
| with no effect | MMQDVSSSPVSPADDSLSNSEEEPDRQQPPSGKRGGRKRRSSRRSAGGGAGPGGAAGGGVGGGDEPGSPAQGKRGKRSAGCGGGGGAGGGGGSSSGGGSPQSYEELQTQRVMANVRERQRTQSLNEAFAALRKIIPTLPSDKLSKIQTLKLAARYIDFLYQVLQSDELDSKMASCSYVAHERLSYAFSVWRMEGAWSMSASH [K77R] |
